Target: the molecule itself
Assay: cryo-EM structure; electron cryotomography and subtomogram averaging of the S-layer on intact N. maritimus cells; 3.3 Å at the centre of the hexamer, about 4.5 Å at the periphery

B1: Nitrosopumilus maritimus S-layer protein Nmar_1547 (NmSLP) (natural protein)
chain: MAANANLFVSAENSQFDNYMSGPQVIEVVVIDSDINDTDEAKGEPDVTVNGKVLRMVQAVDGNWYGYFADRDQAQIADSTATTADSGLDFGVFCASSSGTAALGFSTTETDGIAIPITIANATATGNGTQTGSSSGGAITTTCAANTLDASTANGTINVVREAKDPVAASGSVSVGQIGLKNGTANSGPNWPFIQLYELNPTGNVVVQYNKGGGVQSTTLTFDTVDQFAELSLDRTVFPRVSQVHATITDLWLNIDPTDEDSWTFATNTKNTTSSFNVDTFYQVFDENGASGGSALTLRTTLSSLMCEDNCVLTLDVDAQSSGTPVVTIQDNGDSILTQLNASSNTNANNASAFGISTETAKLGTGSIPVTITEQGPNSGVFGTYDESDKSVLKITDNAKRGTSASLDYNETPQTILVGFSFASIDIQPVTDEWTSGQEIPVVIVDADQNKNSRADEDLDLNNPDVTLIPALRTGDPFTIDEGGTPSLIFTNGTNGDDSIFDTGAINNTSAGQVGNFTLNINVTRFSSATNITSTESIDTFSKRLISAQTANSSANFDVDFAIIDLGSATLETLKETVVDEDNTAVGFNFFNYDVRSLGADTVSIALLNTTGNILPWVNNDTRNVDKNNAILLVSNSTNSQAYVDLTNAVSDAVYGSTNTDSNVNIGFAMYFTGVGDLAAKEVIVMDFFSFGFTDDGVQSSERFANQIIRIEAEETGDNTSTFEGSLEYVMVNQINIQDAGTFSGITPIADDPSFIVIEDLTDEDAPRVNYNDLGADGVTTPVSDQEEAPSHSGVVSLNADSYKIADTVVITVEDLDLNVDSDLIDIFTVVSDNSKATDDAVGSATTQSLSFGELGRLLDVTFDDVIWSTPDGANNTATGNDSDTCSTELSNAGITDTGLGATGFTLVETGAATGVFVGDFQIPSFWCRVSDTTTTPYTYAGDEETTTGLDIEVNYVDFRDASGEIVEVGDSAGVRANTGSVSLDRTVYPVPFGTIADSSKAANAAPNGRSVFPIHATGITSTIDSTEELPTGDLTIHVRINDPDFDENPAGEDAMDQDNALKISVIRGSDSVVLGYAGASERTGKIDVGGNNGTISNIRSFGEMDEIAPDAGIFELDVNIKFTDGPASAQCNSHDTLYTALDGTTGKADTNRFDDGAASGQEYCILQGDILQVEYTDPADASGDANTVTDSATFDLRNGVLQSDKSVYIIGSDMILTLIEPDFDLDNDSAETYDLDLIEWDSDAATTTMGNKGVTGAAAAFDPEPTDFRETGDSTGIFQIVIEIPESLSNDKLERGEEIILEYTDWGPSGSDYVGDEDEDVNLTIYTSNFGATVELDQKVYSWTDKVYITIVAPDHNFDSDLVDEIGETDSDPIKVSTRGFDLDNYKLVETGTDTGIFTGEVILTGFTAHDADGDGNTGDATGTTSGSGPTDGLLATDDDDGLTVSFEFSEDETIVGSALIRWNIGEVQWLEASYPASGTGVVRVIDPDMNLDPEAVDNFEVDVWSDSDAGGIDLTVTETNEATGIFEGTVFFTTLDESSGHRLRVSEGDTVTAEYEDNTLPDPYTTADELDITATSLIGTVVPPLERAPAANLRTVDAFGNSLDSVSVDQQVQISADLANGQDREQSFAYLVQIQDANGVTVSLAWITGSLSSGQSFSPALSWIPTEAGTYTATAFVWESVDNPTALSPPVSTTVNVS
modifications: 17 N-glycans per monomer on asparagine residues followed by a threonine or serine at the +2 position (positions not given)
stoichiometry N: 6

Source: article PMC11153153, “Membraneless channels sieve cations in ammonia-oxidizing marine archaea” (Nature, 2024)
